Data reported in patent US20250043302A1, “MUTATED HYDROXYPHENYLPYRUVATE DIOXYGENASE POLYPEPTIDE, AND CODING GENE AND USE THEREOF” (BEIJING DABEINONG BIOTECHNOLOGY CO., LTD., priority 2021, published 2025).

What was measured:
Type in all cases: in vivo
[1] = test system: Arabidopsis thaliana T1 plants; experiment: Topramezone tolerance of transgenic Arabidopsis thaliana T1 plants (spray, bleached leaf area grade, damage score); conditions: for Classification and statistics of the grade of pesticide damage Grade 0: number of plants at grade 0; for Classification and statistics of the grade of pesticide damage Grade 1: number of plants at grade 1; for Classification and statistics of the grade of pesticide damage Grade 2: number of plants at grade 2; for Classification and statistics of the grade of pesticide damage Grade 3: number of plants at grade 3; for Classification and statistics of the grade of pesticide damage: Grade 0 / Classification and statistics of the grade of pesticide damage: Grade 1 / Classification and statistics of the grade of pesticide damage: Grade 2 / Classification and statistics of the grade of pesticide damage: Grade 3: number of plants
In short: (§1)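 T1 transformants selected by glufosinate; 18-day-old plants, with empty-vector and wild-type controls, sprayed with topramezone (25–200 g ai/ha), isoxaflutole (35–280 g ai/ha) or mesotrione (52.5–420 g ai/ha), water as 0×. Bleached leaf area fraction scored at 7 DAT as grades 0–3.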

[2] = test system: Arabidopsis thaliana T1 plants; experiment: Isoxaflutole tolerance of transgenic Arabidopsis thaliana T1 plants (spray, bleached leaf area grade, damage score); design: Scores (pesticide damage): scale not given here; conditions: for Classification and statistics of the grade of pesticide damage: Grade 0 (number of plants) / Classification and statistics of the grade of pesticide damage: Grade 1 (number of plants) / Classification and statistics of the grade of pesticide damage: Grade 2 (number of plants) / Classification and statistics of the grade of pesticide damage: Grade 3 (number of plants): 16 plants; for Classification and statistics of the grade of pesticide damage Grade 0 / Classification and statistics of the grade of pesticide damage Grade 1 / Classification and statistics of the grade of pesticide damage Grade 2 / Classification and statistics of the grade of pesticide damage Grade 3: number of plants in grade
In short: as §1

[3] = test system: Arabidopsis thaliana T1 plants; experiment: Mesotrione tolerance of transgenic Arabidopsis thaliana T1 plants (spray, bleached leaf area grade, damage score); design: Scores: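 damage score 0-100 computed as Σ(N×S)/(T×M)×100 over grades 0-3 with higher meaning more damage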; conditions: for Grade 0 (classification and statistics of the grade of pesticide damage; number of plants) / Grade 1 (classification and statistics of the grade of pesticide damage; number of plants) / Grade 2 (classification and statistics of the grade of pesticide damage; number of plants) / Grade 3 (classification and statistics of the grade of pesticide damage; number of plants): 16 plants; for Classification and statistics of the grade of pesticide damage Grade 0 / Classification and statistics of the grade of pesticide damage Grade 1 / Classification and statistics of the grade of pesticide damage Grade 2 / Classification and statistics of the grade of pesticide damage Grade 3: number of plants in grade
In short: as §1

[4] = Table 13, topramezone 25 g ai/ha (1×)
[5] = Table 13, topramezone 100 g ai/ha (4×)
[6] = topramezone 25 g ai/ha (1×), 7 DAT, Table 4
[7] = topramezone 100 g ai/ha (4×), 7 DAT, Table 4
[8] = isoxaflutole 35 g ai/ha (0.5x field concentration), spray, Arabidopsis thaliana T1 plants
[9] = isoxaflutole 70 g ai/ha (1x field concentration), spray, Arabidopsis thaliana T1 plants
[10] = mesotrione 52.5 g ai/ha, Arabidopsis thaliana T1 plants
[11] = mesotrione 105 g ai/ha, Arabidopsis thaliana T1 plants

B1: AtHPPDm-F372A-02: nucleotide sequence encoding Arabidopsis thaliana HPPD with F372A; vector DBN11731 (nucleic acid)
DNA: ATGGGACATCAGAATGCTGCTGTATCAGAAAATCAAAATCATGATGATGGAGCCGCCTCCTCACCAGGGTTTAAGTTGGTTGGGTTCTCCAAGTTTGTACGGAAGAACCCAAAATCCGACAAGTTCAAGGTTAAACGCTTCCACCACATTGAATTCTGGTGCGGCGACGCCACCAATGTTGCTCGGCGTTTTTCATGGGGTTTAGGCATGAGATTCTCAGCAAAGAGTGACCTGAGCACCGGCAACATGGTTCATGCTAGCTATCTCTTAACATCTGGAGATTTGAGGTTTCTTTTCACGGCGCCGTACTCACCATCACTCTCCGCCGGCGAGATCAAACCCACCACGACTGCAAGCATACCTTCATTTGATCATGGTAGTTGCAGATCCTTCTTCTCGTCGCACGGCCTAGGGGTGCGCGCGGTCGCCATCGAAGTTGAAGATGCAGAATCAGCGTTTAGTATCAGCGTGGCAAATGGAGCTATTCCTTCCTCCCCTCCAATTGTCCTCAATGAGGCTGTAACTATTGCCGAGGTGAAGTTGTATGGAGATGTTGTGCTGAGATATGTTTCTTACAAGGCAGAGGACACTGAGAAATCTGAATTTTTGCCTGGTTTTGAAAGGGTCGAGGATGCTTCAAGTTTTCCTCTTGATTACGGCATACGACGGTTGGATCACGCGGTTGGAAATGTACCAGAACTTGGGCCGGCGCTCACTTATGTGGCTGGTTTCACTGGATTCCATCAATTTGCTGAGTTCACAGCTGATGATGTTGGGACTGCTGAAAGTGGGTTGAACTCTGCAGTCCTCGCCTCTAATGATGAAATGGTGCTCCTCCCGATCAACGAGCCTGTGCATGGCACCAAAAGGAAATCACAAATACAGACATATCTTGAGCACAATGAAGGTGCAGGGCTTCAACATCTTGCACTGATGTCTGAAGACATTTTCCGTACGCTGAGAGAGATGAGGAAGAGAAGTAGTATTGGTGGATTTGACTTCATGCCTTCTCCCCCACCAACTTACTACCAGAACTTGAAGAAGAGGGTTGGTGATGTGCTATCTGATGACCAGATCAAGGAGTGTGAAGAATTGGGCATTCTTGTTGATCGGGACGACCAAGGAACATTACTGCAGATAGCCACAAAACCACTTGGTGACCGCCCCACTATTTTTATTGAGATCATACAAAGAGTCGGCTGCATGATGAAGGATGAGGAAGGAAAAGCATATCAATCTGGTGGTTGTGGCGGCTTTGGGAAAGGAAACTTCTCTGAGCTGTTCAAATCCATCGAGGAGTATGAGAAGACCTTGGAGGCCAAGCAGCTCGTGGGTTGA
modifications: AtHPPDm-F372A-02 Nucleotide Sequence
notes: vector DBN11731
For B1, the Resistance evaluation [1, 4] was “Poorly”, the “Classification and statistics of the grade of pesticide damage Grade 0” value [1, 4] was 4 and the “Classification and statistics of the grade of pesticide damage Grade 1” value [1, 4] was 4. For the same molecule, the “Classification and statistics of the grade of pesticide damage Grade 2” value [1, 4] was 8, the “Classification and statistics of the grade of pesticide damage Grade 3” value [1, 4] was 0 and the Scores ([1]; Table 13, topramezone 25 g ai/ha (1×), pesticide damage score) was 42. The Resistance evaluation [1, 5] was “Non-resistant”, the “Classification and statistics of the grade of pesticide damage Grade 0” value [1, 5] was 0 and the “Classification and statistics of the grade of pesticide damage Grade 1” value [1, 5] was 0. The “Classification and statistics of the grade of pesticide damage Grade 2” value [1, 5] was 4, the “Classification and statistics of the grade of pesticide damage Grade 3” value [1, 5] was 12 and the Scores ([1]; Table 13, topramezone 100 g ai/ha (4×), pesticide damage score) was 92. For the same molecule, the “Classification and statistics of the grade of pesticide damage: Grade 0” value [1, 6] was 4, the “Classification and statistics of the grade of pesticide damage: Grade 1” value [1, 6] was 4 and the “Classification and statistics of the grade of pesticide damage: Grade 2” value [1, 6] was 8. The “Classification and statistics of the grade of pesticide damage: Grade 3” value [1, 6] was 0, the “Classification and statistics of the grade of pesticide damage: Grade 0” value [1, 7] was 0 and the “Classification and statistics of the grade of pesticide damage: Grade 1” value [1, 7] was 0. The “Classification and statistics of the grade of pesticide damage: Grade 2” value [1, 7] was 4, the “Classification and statistics of the grade of pesticide damage: Grade 3” value [1, 7] was 12 and the Scores ([1]; pesticide damage score 0-100, topramezone 25 g ai/ha (1×), 7 DAT, Table 4) was 42. The Scores ([1]; pesticide damage score 0-100, topramezone 100 g ai/ha (4×), 7 DAT, Table 4) was 92, the Resistance evaluation [1, 6] was “poorly” and the Resistance evaluation [1, 7] was “non-resistant (non-resistant plants (scores 68-100))”. The Resistance evaluation ([2]; isoxaflutole 35 g ai/ha) was “Poorly”, the Scores ([2]; isoxaflutole 35 g ai/ha) was 52 and the Resistance evaluation [2, 8] was “Poorly”. For the same molecule, the “Scores (pesticide damage)” value [2, 8] was 52, the “Classification and statistics of the grade of pesticide damage: Grade 0 (number of plants)” value [2, 8] was 0 and the “Classification and statistics of the grade of pesticide damage: Grade 1 (number of plants)” value [2, 8] was 9. The “Classification and statistics of the grade of pesticide damage: Grade 2 (number of plants)” value [2, 8] was 5, the “Classification and statistics of the grade of pesticide damage: Grade 3 (number of plants)” value [2, 8] was 2 and the “Classification and statistics of the grade of pesticide damage Grade 0” value ([2]; isoxaflutole 35 g ai/ha) was 0. For the same molecule, the “Classification and statistics of the grade of pesticide damage Grade 1” value ([2]; isoxaflutole 35 g ai/ha) was 9, the “Classification and statistics of the grade of pesticide damage Grade 2” value ([2]; isoxaflutole 35 g ai/ha) was 5 and the “Classification and statistics of the grade of pesticide damage Grade 3” value ([2]; isoxaflutole 35 g ai/ha) was 2. The Resistance evaluation ([2]; isoxaflutole 70 g ai/ha) was “Non-resistant”, the Scores ([2]; isoxaflutole 70 g ai/ha) was 96 and the Resistance evaluation [2, 9] was “Non-resistant”. For the same molecule, the “Scores (pesticide damage)” value [2, 9] was 96, the “Classification and statistics of the grade of pesticide damage: Grade 0 (number of plants)” value [2, 9] was 0 and the “Classification and statistics of the grade of pesticide damage: Grade 1 (number of plants)” value [2, 9] was 0. For the same molecule, the “Classification and statistics of the grade of pesticide damage: Grade 2 (number of plants)” value [2, 9] was 2, the “Classification and statistics of the grade of pesticide damage: Grade 3 (number of plants)” value [2, 9] was 14 and the “Classification and statistics of the grade of pesticide damage Grade 0” value ([2]; isoxaflutole 70 g ai/ha) was 0. For the same molecule, the “Classification and statistics of the grade of pesticide damage Grade 1” value ([2]; isoxaflutole 70 g ai/ha) was 0, the “Classification and statistics of the grade of pesticide damage Grade 2” value ([2]; isoxaflutole 70 g ai/ha) was 2 and the “Classification and statistics of the grade of pesticide damage Grade 3” value ([2]; isoxaflutole 70 g ai/ha) was 14. The Resistance evaluation ([3]; mesotrione 52.5 g ai/ha) was “Poorly resistant”, the Scores ([3]; mesotrione 52.5 g ai/ha) was 63 and the Resistance evaluation [3, 10] was “Poorly resistant”. For the same molecule, the Scores [3, 10] was 63, the “Grade 0 (classification and statistics of the grade of pesticide damage; number of plants)” value [3, 10] was 0 and the “Grade 1 (classification and statistics of the grade of pesticide damage; number of plants)” value [3, 10] was 5. The “Grade 2 (classification and statistics of the grade of pesticide damage; number of plants)” value [3, 10] was 8, the “Grade 3 (classification and statistics of the grade of pesticide damage; number of plants)” value [3, 10] was 3 and the “Classification and statistics of the grade of pesticide damage Grade 0” value ([3]; mesotrione 52.5 g ai/ha) was 0. The “Classification and statistics of the grade of pesticide damage Grade 1” value ([3]; mesotrione 52.5 g ai/ha) was 5, the “Classification and statistics of the grade of pesticide damage Grade 2” value ([3]; mesotrione 52.5 g ai/ha) was 8 and the “Classification and statistics of the grade of pesticide damage Grade 3” value ([3]; mesotrione 52.5 g ai/ha) was 3. The Resistance evaluation ([3]; mesotrione 105 g ai/ha) was “Non-resistant”, the Scores ([3]; mesotrione 105 g ai/ha) was 100 and the Resistance evaluation [3, 11] was “Non-resistant”. The Scores [3, 11] was 100, the “Grade 0 (classification and statistics of the grade of pesticide damage; number of plants)” value [3, 11] was 0 and the “Grade 1 (classification and statistics of the grade of pesticide damage; number of plants)” value [3, 11] was 0. The “Grade 2 (classification and statistics of the grade of pesticide damage; number of plants)” value [3, 11] was 0, the “Grade 3 (classification and statistics of the grade of pesticide damage; number of plants)” value [3, 11] was 16 and the “Classification and statistics of the grade of pesticide damage Grade 0” value ([3]; mesotrione 105 g ai/ha) was 0. The “Classification and statistics of the grade of pesticide damage Grade 1” value ([3]; mesotrione 105 g ai/ha) was 0, the “Classification and statistics of the grade of pesticide damage Grade 2” value ([3]; mesotrione 105 g ai/ha) was 0 and the “Classification and statistics of the grade of pesticide damage Grade 3” value ([3]; mesotrione 105 g ai/ha) was 16.
